{
  "source": "patent US20250340636A1",
  "about": "(Memorial Sloan Kettering, published 2025)",
  "binders": {"B1": {"name": "TDI-Y-005 (antibody, human IgG1, kappa, V domains shown)", "VH": "EVQMVESGGGLVQPGGSLRLSCAAPGFIFSSYNMNWVRQAPGKGLEWVSYISSSSSTTYYADSVKGRFTISRDNAKNSLYLQMNSLRDEDTAVYYCASLYSGYDYYYYYGMDVWGQGTTVTVSS", "VL": "DIVMTQTPLSSPVSLGQPASISCRSSQSLVHSDGNTYLSWLQQRPGQPPRVLIYKISKRFSGVPDRFSGSGAGTDFTLKISRVEAEDVGVYYCMQATQFPFTFGPGTKVDIKR", "notes": "Human IgG1, kappa; also called human 14A10 mAb; fully human 14A10 mAb"}},
  "key": {"[1]": {"molecular_target": "T1, soluble cynomolgus monkey L1CAM, His-tagged, monomeric (cynomolgus monkey, UniProt A0A2K5URB5 20-1120)", "T1 construct": "also called cyL1CAM protein; cynomolgus L1CAM-His", "test": "BLI, cynomolgus against human L1CAM-His", "experimental": "(§1) Cross-reactivity to Cynomolgus Monkey L1CAM. Affinity to cynomolgus L1CAM was measured by BLI using an Octet Red96e instrument. […] The data was prepared by reference well subtraction, and response curves were globally fit to a 1:1 Langmuir binding model."}, "[2]": {"molecular_target": "T2, extracellular domain of human L1CAM (isoform 1) fused to a poly-histidine tag via its carboxy terminus (human, UniProt P32004 20-1120)", "T2 construct": "Bought (Creative Biomart); also called L1CAM-His; huL1CAM protein", "T2 sequence (P32004 20-1120)": "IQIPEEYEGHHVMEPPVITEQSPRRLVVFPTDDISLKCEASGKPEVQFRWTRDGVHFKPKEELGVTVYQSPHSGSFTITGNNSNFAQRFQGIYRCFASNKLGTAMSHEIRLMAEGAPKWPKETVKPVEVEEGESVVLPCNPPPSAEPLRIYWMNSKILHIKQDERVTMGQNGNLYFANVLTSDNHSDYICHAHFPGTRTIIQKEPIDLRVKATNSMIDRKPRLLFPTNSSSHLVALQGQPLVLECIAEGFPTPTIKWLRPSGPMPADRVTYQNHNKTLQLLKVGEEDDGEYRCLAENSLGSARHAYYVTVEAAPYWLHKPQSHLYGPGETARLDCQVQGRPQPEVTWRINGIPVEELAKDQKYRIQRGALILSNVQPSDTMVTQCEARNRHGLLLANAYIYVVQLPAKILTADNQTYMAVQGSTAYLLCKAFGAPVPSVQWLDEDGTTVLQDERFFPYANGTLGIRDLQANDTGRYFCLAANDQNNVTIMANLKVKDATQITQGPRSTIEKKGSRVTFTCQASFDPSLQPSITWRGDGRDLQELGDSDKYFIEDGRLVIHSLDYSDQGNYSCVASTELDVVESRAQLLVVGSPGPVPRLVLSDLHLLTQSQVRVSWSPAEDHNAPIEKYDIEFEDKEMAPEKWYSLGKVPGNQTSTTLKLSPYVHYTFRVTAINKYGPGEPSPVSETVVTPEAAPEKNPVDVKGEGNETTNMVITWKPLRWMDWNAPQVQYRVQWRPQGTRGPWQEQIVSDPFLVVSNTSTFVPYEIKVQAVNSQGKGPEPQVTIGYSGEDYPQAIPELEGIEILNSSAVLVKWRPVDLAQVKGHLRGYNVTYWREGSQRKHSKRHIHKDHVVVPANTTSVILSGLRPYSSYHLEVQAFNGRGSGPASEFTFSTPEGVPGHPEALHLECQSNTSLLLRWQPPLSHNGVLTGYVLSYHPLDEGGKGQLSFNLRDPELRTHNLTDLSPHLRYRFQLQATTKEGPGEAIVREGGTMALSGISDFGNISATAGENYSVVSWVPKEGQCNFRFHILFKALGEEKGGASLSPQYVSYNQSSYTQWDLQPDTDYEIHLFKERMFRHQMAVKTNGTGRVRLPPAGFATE", "test": "summary table; binding to soluble human L1CAM (monomer)", "experimental": "Binding to L1CAM in Solution. Affinity to human L1CAM was measured by BLI using an Octet Red96e instrument. […] The data was prepared by reference well subtraction, and response curves were globally fit to a 1:1 Langmuir binding model."}, "[3]": {"molecular_target": "T1, soluble cynomolgus monkey L1CAM, …", "test": "summary table; soluble cynomolgus monkey L1CAM (monomer)", "experimental": "as §1"}, "[4]": {"molecular_target": "T3, human L1CAM on cells (human, UniProt P32004 20-1257)", "T3 construct": "Overexpressed on stably transfected HEK293T cells or endogenous on MCF-7 and MDA-MB-231 cells; also called HEK293T-hL1CAM", "T3 sequence (P32004 20-1257)": "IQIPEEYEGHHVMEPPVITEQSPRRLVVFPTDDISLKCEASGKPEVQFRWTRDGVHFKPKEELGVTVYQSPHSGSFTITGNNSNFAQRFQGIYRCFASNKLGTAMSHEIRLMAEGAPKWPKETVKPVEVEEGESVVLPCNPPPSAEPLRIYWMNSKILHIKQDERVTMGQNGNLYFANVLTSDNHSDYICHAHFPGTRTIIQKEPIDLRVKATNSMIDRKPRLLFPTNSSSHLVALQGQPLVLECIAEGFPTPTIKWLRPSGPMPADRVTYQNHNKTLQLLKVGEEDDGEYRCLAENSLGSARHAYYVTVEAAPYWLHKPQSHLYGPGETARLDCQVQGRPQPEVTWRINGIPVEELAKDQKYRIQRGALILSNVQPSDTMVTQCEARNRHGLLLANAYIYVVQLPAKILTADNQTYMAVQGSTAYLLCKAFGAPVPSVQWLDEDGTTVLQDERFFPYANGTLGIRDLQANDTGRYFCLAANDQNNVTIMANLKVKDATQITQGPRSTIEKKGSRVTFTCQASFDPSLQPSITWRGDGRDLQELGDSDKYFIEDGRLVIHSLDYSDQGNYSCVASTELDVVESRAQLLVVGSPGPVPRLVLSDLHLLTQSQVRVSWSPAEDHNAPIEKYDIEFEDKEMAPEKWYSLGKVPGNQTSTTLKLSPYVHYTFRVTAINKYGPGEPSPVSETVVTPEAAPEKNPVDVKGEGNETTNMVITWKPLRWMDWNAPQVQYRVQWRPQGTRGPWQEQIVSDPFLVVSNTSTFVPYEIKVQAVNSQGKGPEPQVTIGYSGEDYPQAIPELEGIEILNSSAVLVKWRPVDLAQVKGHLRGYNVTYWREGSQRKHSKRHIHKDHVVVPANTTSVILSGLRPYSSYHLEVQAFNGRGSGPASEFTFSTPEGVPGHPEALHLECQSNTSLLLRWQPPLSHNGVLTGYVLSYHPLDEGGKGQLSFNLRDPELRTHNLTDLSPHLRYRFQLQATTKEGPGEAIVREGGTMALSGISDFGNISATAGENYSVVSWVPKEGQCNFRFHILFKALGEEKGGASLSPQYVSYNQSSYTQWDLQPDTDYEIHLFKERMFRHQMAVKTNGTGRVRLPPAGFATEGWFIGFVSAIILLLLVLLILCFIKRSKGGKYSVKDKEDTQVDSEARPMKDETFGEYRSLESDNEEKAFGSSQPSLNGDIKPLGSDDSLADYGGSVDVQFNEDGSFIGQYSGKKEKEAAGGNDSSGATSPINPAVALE", "test": "summary table; binding to cells with endogenous L1CAM (MCF-7)", "experimental": "(§2) Binding to L1CAM on Cells. […] Cells were then incubated with an AlexaFluor 647 goat anti-human Fc secondary antibody. After washing, the stained cells were analyzed by flow cytometry.\n(§3) The binding curves for each antibody and cell line normalized to secondary antibody only staining (MFI ratio) are shown in FIGS. 14A-14C. EC50 values were determined by non-linear regression (Table 70). […] It is possible that differences in the conformation and oligomerization of L1CAM, depending on the surface expression level, contributed to the binding pattern. […] An avidity effect due to high levels of L1CAM surface expression may have contributed to the strong binding observed in this experiment."}, "[5]": {"molecular_target": "T3, human L1CAM on cells", "test": "summary table; binding to cells with endogenous L1CAM (MDA-MB-231)", "experimental": "as §2, §3"}, "[6]": {"molecular_target": "T3, human L1CAM on cells", "test": "flow cytometry, MDA-MB-231 cells, AlexaFluor 647 anti-human Fc secondary", "experimental": "as §2, §3"}, "[7]": {"molecular_target": "T3, human L1CAM on cells", "test": "flow cytometry, HEK293T-hL1CAM cells, AlexaFluor 647 anti-human Fc secondary", "experimental": "as §2, §3"}, "[8]": {"molecular_target": "T4, mouse L1CAM on transiently transfected HEK293FT cells (mouse, UniProt P11627 20-1260)", "T4 construct": "whole, on cells; also called mouse L1CAM on cells", "T4 sequence (P11627 20-1260)": "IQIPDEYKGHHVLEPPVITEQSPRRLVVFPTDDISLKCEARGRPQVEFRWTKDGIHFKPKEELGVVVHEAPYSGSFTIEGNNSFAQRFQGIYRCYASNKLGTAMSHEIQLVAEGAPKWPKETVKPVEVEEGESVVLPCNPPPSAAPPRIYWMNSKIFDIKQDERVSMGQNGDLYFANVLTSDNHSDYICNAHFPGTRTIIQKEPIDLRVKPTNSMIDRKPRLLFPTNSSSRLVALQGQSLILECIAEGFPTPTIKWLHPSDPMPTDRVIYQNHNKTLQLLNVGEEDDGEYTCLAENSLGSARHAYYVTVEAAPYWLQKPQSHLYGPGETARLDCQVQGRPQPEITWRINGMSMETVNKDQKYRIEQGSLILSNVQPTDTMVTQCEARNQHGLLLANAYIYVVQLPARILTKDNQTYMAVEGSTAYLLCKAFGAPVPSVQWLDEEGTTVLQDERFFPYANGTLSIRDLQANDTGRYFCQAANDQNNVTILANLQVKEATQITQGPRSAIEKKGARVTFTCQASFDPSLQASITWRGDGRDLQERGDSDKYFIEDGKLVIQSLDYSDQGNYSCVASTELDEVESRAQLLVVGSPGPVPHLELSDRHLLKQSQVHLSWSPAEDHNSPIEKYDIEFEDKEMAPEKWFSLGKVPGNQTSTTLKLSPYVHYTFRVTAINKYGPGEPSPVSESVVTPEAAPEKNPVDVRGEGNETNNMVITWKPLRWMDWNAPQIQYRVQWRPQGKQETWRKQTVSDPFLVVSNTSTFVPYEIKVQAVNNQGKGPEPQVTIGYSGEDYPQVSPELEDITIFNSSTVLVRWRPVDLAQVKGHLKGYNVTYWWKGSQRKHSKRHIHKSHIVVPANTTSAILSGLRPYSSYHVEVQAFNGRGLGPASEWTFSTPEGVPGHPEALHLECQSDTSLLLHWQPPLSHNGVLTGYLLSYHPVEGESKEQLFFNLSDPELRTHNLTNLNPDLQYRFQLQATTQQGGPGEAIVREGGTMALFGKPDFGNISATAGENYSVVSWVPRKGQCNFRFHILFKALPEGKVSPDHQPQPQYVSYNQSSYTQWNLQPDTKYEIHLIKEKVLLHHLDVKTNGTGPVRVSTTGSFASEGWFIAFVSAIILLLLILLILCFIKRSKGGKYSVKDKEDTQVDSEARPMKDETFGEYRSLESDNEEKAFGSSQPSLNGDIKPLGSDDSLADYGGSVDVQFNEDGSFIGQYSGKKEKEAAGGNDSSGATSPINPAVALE", "test": "flow cytometry, HEK293FT cells transiently transfected with mouse L1CAM (data not shown)"}},
  "data": [
    {"binder": "B1", "values": [
      {"measurement": "fold difference of KD against human L1CAM", "setting": "[1]", "result": "≤ 3.3", "unit": "fold"},
      {"measurement": "Kd", "setting": "[2]", "result": 4.3, "unit": "nM"},
      {"measurement": "koff", "setting": "[2]", "result": 0.00014, "unit": "s⁻¹"},
      {"measurement": "kon", "setting": "[2]", "result": 33000, "unit": "M⁻¹ s⁻¹"},
      {"measurement": "Kd", "setting": "[3]", "result": 1.3, "unit": "nM"},
      {"measurement": "koff", "setting": "[3]", "result": 0.00012, "unit": "s⁻¹"},
      {"measurement": "kon", "setting": "[3]", "result": 93000, "unit": "M⁻¹ s⁻¹"},
      {"measurement": "EC50", "setting": "[4]", "result": 2.5, "unit": "nM"},
      {"measurement": "EC50", "setting": "[5]", "result": 7.1, "unit": "nM"},
      {"measurement": "EC50", "setting": "[6]", "result": 7.1, "unit": "nM"},
      {"measurement": "EC50", "setting": "[7]", "result": 2, "unit": "nM"},
      {"measurement": "EC50", "setting": "[8]", "result": 0.9, "unit": "nM"}
    ]}
  ]
}
